Measurements from patent publication US20260209293A1 (Novo Nordisk, published 2026).
*1 amine or outer side, *2 acyl side, *3 side chain or, on linkers, in order; H or OH if unused. The star is where a group is joined. C18 diacid = O=C(O)CCCCCCCCCCCCCCCCC(=O)*; γGlu = O=C(O)[C@H](CCC(=O)[*:2])N[*:1]

B1: N^1-[(4S)-4-carboxy-4-(17-carboxyheptadecanoylamino)butanoyl]-[Ala1,Ser2,Glu3, Leu4, Ser5,Ala7,Gln8,Glu14, His17, Pro25, Pro28, Pro29,Asp31,Glu35, … (peptide)
peptide: {C18 diacid-γGlu}-ASELSTAQTQRLAEFLHHFGPILPPTDVGSETP-NH2
SMILES: CC[C@H](C)[C@H](NC(=O)[C@@H]1CCCN1C(=O)CNC(=O)[C@H](Cc1ccccc1)NC(=O)[C@H](Cc1c[nH]cn1)NC(=O)[C@H](Cc1c[nH]cn1)NC(=O)[C@H](CC(C)C)NC(=O)[C@H](Cc1ccccc1)NC(=O)[C@H](CCC(=O)O)NC(=O)[C@H](C)NC(=O)[C@H](CC(C)C)NC(=O)[C@H](CCCNC(=N)N)NC(=O)[C@H](CCC(N)=O)NC(=O)[C@@H](NC(=O)[C@H](CCC(N)=O)NC(=O)[C@H](C)NC(=O)[C@@H](NC(=O)[C@H](CO)NC(=O)[C@H](CC(C)C)NC(=O)[C@H](CCC(=O)O)NC(=O)[C@H](CO)NC(=O)[C@H](C)NC(=O)CC[C@H](NC(=O)CCCCCCCCCCCCCCCCC(=O)O)C(=O)O)[C@@H](C)O)[C@@H](C)O)C(=O)N[C@@H](CC(C)C)C(=O)N1CCC[C@H]1C(=O)N1CCC[C@H]1C(=O)N[C@H](C(=O)N[C@@H](CC(=O)O)C(=O)N[C@H](C(=O)NCC(=O)N[C@@H](CO)C(=O)N[C@@H](CCC(=O)O)C(=O)N[C@H](C(=O)N1CCC[C@H]1C(N)=O)[C@@H](C)O)C(C)C)[C@@H](C)O
B2: N^1-[(4S)-4-carboxy-4-(17-carboxyheptadecanoylamino)butanoyl]-[Ala1,Ser2,His3,Leu4,Ser5,Ala7,Gln8,Glu14,His17,Glu21,Pro22,Pro27,Glu31,Pro34,Glu35,Pro37]-human … (peptide)
peptide: {C18 diacid-γGlu}-ASHLSTAQTQRLAEFLHHSSEPFGAIPSSTEVGPETP-NH2
SMILES: CC[C@H](C)[C@H](NC(=O)[C@H](C)NC(=O)CNC(=O)[C@H](Cc1ccccc1)NC(=O)[C@@H]1CCCN1C(=O)[C@H](CCC(=O)O)NC(=O)[C@H](CO)NC(=O)[C@H](CO)NC(=O)[C@H](Cc1c[nH]cn1)NC(=O)[C@H](Cc1c[nH]cn1)NC(=O)[C@H](CC(C)C)NC(=O)[C@H](Cc1ccccc1)NC(=O)[C@H](CCC(=O)O)NC(=O)[C@H](C)NC(=O)[C@H](CC(C)C)NC(=O)[C@H](CCCNC(=N)N)NC(=O)[C@H](CCC(N)=O)NC(=O)[C@@H](NC(=O)[C@H](CCC(N)=O)NC(=O)[C@H](C)NC(=O)[C@@H](NC(=O)[C@H](CO)NC(=O)[C@H](CC(C)C)NC(=O)[C@H](Cc1c[nH]cn1)NC(=O)[C@H](CO)NC(=O)[C@H](C)NC(=O)CC[C@H](NC(=O)CCCCCCCCCCCCCCCCC(=O)O)C(=O)O)[C@@H](C)O)[C@@H](C)O)C(=O)N1CCC[C@H]1C(=O)N[C@@H](CO)C(=O)N[C@@H](CO)C(=O)N[C@H](C(=O)N[C@@H](CCC(=O)O)C(=O)N[C@H](C(=O)NCC(=O)N1CCC[C@H]1C(=O)N[C@@H](CCC(=O)O)C(=O)N[C@H](C(=O)N1CCC[C@H]1C(N)=O)[C@@H](C)O)C(C)C)[C@@H](C)O
B3: N^1-[(4S)-4-carboxy-4-[[(4S)-4-carboxy-4-(17-carboxyheptadecanoylamino)butanoyl]amino]butanoyl]-[Ala1,Ser2,His3,Leu4,Ser5,Ala7,Gln8,Glu14,His17,Pro25,Pro28,Pro2 … (peptide)
peptide: {C18 diacid-γGlu-γGlu}-ASHLSTAQTQRLAEFLHHFGPILPPTDVGSETP-NH2
SMILES: CC[C@H](C)[C@H](NC(=O)[C@@H]1CCCN1C(=O)CNC(=O)[C@H](Cc1ccccc1)NC(=O)[C@H](Cc1c[nH]cn1)NC(=O)[C@H](Cc1c[nH]cn1)NC(=O)[C@H](CC(C)C)NC(=O)[C@H](Cc1ccccc1)NC(=O)[C@H](CCC(=O)O)NC(=O)[C@H](C)NC(=O)[C@H](CC(C)C)NC(=O)[C@H](CCCNC(=N)N)NC(=O)[C@H](CCC(N)=O)NC(=O)[C@@H](NC(=O)[C@H](CCC(N)=O)NC(=O)[C@H](C)NC(=O)[C@@H](NC(=O)[C@H](CO)NC(=O)[C@H](CC(C)C)NC(=O)[C@H](Cc1c[nH]cn1)NC(=O)[C@H](CO)NC(=O)[C@H](C)NC(=O)CC[C@H](NC(=O)CC[C@H](NC(=O)CCCCCCCCCCCCCCCCC(=O)O)C(=O)O)C(=O)O)[C@@H](C)O)[C@@H](C)O)C(=O)N[C@@H](CC(C)C)C(=O)N1CCC[C@H]1C(=O)N1CCC[C@H]1C(=O)N[C@H](C(=O)N[C@@H](CC(=O)O)C(=O)N[C@H](C(=O)NCC(=O)N[C@@H](CO)C(=O)N[C@@H](CCC(=O)O)C(=O)N[C@H](C(=O)N1CCC[C@H]1C(N)=O)[C@@H](C)O)C(C)C)[C@@H](C)O
B4: N^1-[(4S)-4-carboxy-4-(17-carboxyheptadecanoylamino)butanoyl]-[Ala1,Ser2,His3,Leu4,Ser5,Ala7,Gln8,Glu14,His17,Pro25,Pro28,Pro29,Asp31,Glu35,Pro37],des-(19-22)-h … (peptide)
peptide: {C18 diacid-γGlu}-ASHLSTAQTQRLAEFLHHFGPILPPTDVGSETP-NH2
SMILES: CC[C@H](C)[C@H](NC(=O)[C@@H]1CCCN1C(=O)CNC(=O)[C@H](Cc1ccccc1)NC(=O)[C@H](Cc1c[nH]cn1)NC(=O)[C@H](Cc1c[nH]cn1)NC(=O)[C@H](CC(C)C)NC(=O)[C@H](Cc1ccccc1)NC(=O)[C@H](CCC(=O)O)NC(=O)[C@H](C)NC(=O)[C@H](CC(C)C)NC(=O)[C@H](CCCNC(=N)N)NC(=O)[C@H](CCC(N)=O)NC(=O)[C@@H](NC(=O)[C@H](CCC(N)=O)NC(=O)[C@H](C)NC(=O)[C@@H](NC(=O)[C@H](CO)NC(=O)[C@H](CC(C)C)NC(=O)[C@H](Cc1c[nH]cn1)NC(=O)[C@H](CO)NC(=O)[C@H](C)NC(=O)CC[C@H](NC(=O)CCCCCCCCCCCCCCCCC(=O)O)C(=O)O)[C@@H](C)O)[C@@H](C)O)C(=O)N[C@@H](CC(C)C)C(=O)N1CCC[C@H]1C(=O)N1CCC[C@H]1C(=O)N[C@H](C(=O)N[C@@H](CC(=O)O)C(=O)N[C@H](C(=O)NCC(=O)N[C@@H](CO)C(=O)N[C@@H](CCC(=O)O)C(=O)N[C@H](C(=O)N1CCC[C@H]1C(N)=O)[C@@H](C)O)C(C)C)[C@@H](C)O
B5: N^1-[(4S)-4-carboxy-4-[[(4S)-4-carboxy-4-(17-carboxyheptadecanoylamino)butanoyl]amino]butanoyl]-[Ala1,Gly2,Ser3,Leu4,Ser5,Ala7,Gln8,Glu14,His17,Pro25,Pro28,Pro2 … (peptide)
peptide: {C18 diacid-γGlu-γGlu}-AGSLSTAQTQRLAEFLHHFGPILPPTDVGSETP-NH2
SMILES: CC[C@H](C)[C@H](NC(=O)[C@@H]1CCCN1C(=O)CNC(=O)[C@H](Cc1ccccc1)NC(=O)[C@H](Cc1c[nH]cn1)NC(=O)[C@H](Cc1c[nH]cn1)NC(=O)[C@H](CC(C)C)NC(=O)[C@H](Cc1ccccc1)NC(=O)[C@H](CCC(=O)O)NC(=O)[C@H](C)NC(=O)[C@H](CC(C)C)NC(=O)[C@H](CCCNC(=N)N)NC(=O)[C@H](CCC(N)=O)NC(=O)[C@@H](NC(=O)[C@H](CCC(N)=O)NC(=O)[C@H](C)NC(=O)[C@@H](NC(=O)[C@H](CO)NC(=O)[C@H](CC(C)C)NC(=O)[C@H](CO)NC(=O)CNC(=O)[C@H](C)NC(=O)CC[C@H](NC(=O)CC[C@H](NC(=O)CCCCCCCCCCCCCCCCC(=O)O)C(=O)O)C(=O)O)[C@@H](C)O)[C@@H](C)O)C(=O)N[C@@H](CC(C)C)C(=O)N1CCC[C@H]1C(=O)N1CCC[C@H]1C(=O)N[C@H](C(=O)N[C@@H](CC(=O)O)C(=O)N[C@H](C(=O)NCC(=O)N[C@@H](CO)C(=O)N[C@@H](CCC(=O)O)C(=O)N[C@H](C(=O)N1CCC[C@H]1C(N)=O)[C@@H](C)O)C(C)C)[C@@H](C)O
B6: N^1-[(4S)-4-carboxy-4-[[(4S)-4-carboxy-4-(17-carboxyheptadecanoylamino)butanoyl]amino]butanoyl]-[Ala1,Ser2, His3, Leu4,Ser5,Ala7,Gln8,Glu14, His17, Pro25, … (peptide)
peptide: {C18 diacid-γGlu-γGlu}-ASHLSTAQTQRLAEFLHHFGPILPPTDVGSETY-NH2
SMILES: CC[C@H](C)[C@H](NC(=O)[C@@H]1CCCN1C(=O)CNC(=O)[C@H](Cc1ccccc1)NC(=O)[C@H](Cc1c[nH]cn1)NC(=O)[C@H](Cc1c[nH]cn1)NC(=O)[C@H](CC(C)C)NC(=O)[C@H](Cc1ccccc1)NC(=O)[C@H](CCC(=O)O)NC(=O)[C@H](C)NC(=O)[C@H](CC(C)C)NC(=O)[C@H](CCCNC(=N)N)NC(=O)[C@H](CCC(N)=O)NC(=O)[C@@H](NC(=O)[C@H](CCC(N)=O)NC(=O)[C@H](C)NC(=O)[C@@H](NC(=O)[C@H](CO)NC(=O)[C@H](CC(C)C)NC(=O)[C@H](Cc1c[nH]cn1)NC(=O)[C@H](CO)NC(=O)[C@H](C)NC(=O)CC[C@H](NC(=O)CC[C@H](NC(=O)CCCCCCCCCCCCCCCCC(=O)O)C(=O)O)C(=O)O)[C@@H](C)O)[C@@H](C)O)C(=O)N[C@@H](CC(C)C)C(=O)N1CCC[C@H]1C(=O)N1CCC[C@H]1C(=O)N[C@H](C(=O)N[C@@H](CC(=O)O)C(=O)N[C@H](C(=O)NCC(=O)N[C@@H](CO)C(=O)N[C@@H](CCC(=O)O)C(=O)N[C@H](C(=O)N[C@@H](Cc1ccc(O)cc1)C(N)=O)[C@@H](C)O)C(C)C)[C@@H](C)O

molecular target: T1, human amylin-3(a) receptor (human, UniProt P30988 25-474; O60896 24-148); experiment: cell-based or functional assay
T1 sequence (looked up) 1: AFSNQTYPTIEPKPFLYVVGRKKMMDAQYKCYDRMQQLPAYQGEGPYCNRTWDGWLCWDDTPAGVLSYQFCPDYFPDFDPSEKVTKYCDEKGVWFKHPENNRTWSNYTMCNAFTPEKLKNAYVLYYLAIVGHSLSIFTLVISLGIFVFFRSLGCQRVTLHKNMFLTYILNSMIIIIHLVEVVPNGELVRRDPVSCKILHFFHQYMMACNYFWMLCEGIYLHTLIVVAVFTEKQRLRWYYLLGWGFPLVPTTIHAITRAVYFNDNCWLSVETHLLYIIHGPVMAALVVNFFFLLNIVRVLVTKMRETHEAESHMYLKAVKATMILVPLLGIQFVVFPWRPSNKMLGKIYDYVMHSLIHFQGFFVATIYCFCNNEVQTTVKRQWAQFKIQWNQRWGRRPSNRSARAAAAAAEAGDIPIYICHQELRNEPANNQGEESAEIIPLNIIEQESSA
T1 sequence (looked up) 2: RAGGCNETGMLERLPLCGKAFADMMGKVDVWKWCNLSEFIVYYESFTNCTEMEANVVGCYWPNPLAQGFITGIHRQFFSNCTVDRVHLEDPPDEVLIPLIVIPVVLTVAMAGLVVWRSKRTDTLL

| Binder | hAmyR3 potency, EC50 (pM); CRE-luciferase reporter in BHK cells [pM] |
| --- | --- |
| B1 | 5.2 |
| B2 | 2.68 |
| B3 | 2.03 |
| B4 | 2.06 |
| B5 | 2.37 |
| B6 | 5.71 |

molecular target: T2, human calcitonin receptor (a) (human, UniProt P30988 25-474); experiment: cell-based or functional assay
T2 sequence (looked up): T1 sequence (looked up) 1

| Binder | hCalcR potency, EC50 (pM); CRE-luciferase reporter in BHK cells [pM] |
| --- | --- |
| B1 | 3.08 |
| B2 | 1.78 |
| B3 | 2.13 |
| B4 | 1.72 |
| B5 | 2.07 |
| B6 | 15.7 |
